# In the DeepSol protein solubility set:
# Test: soluble on expression in E. coli; label from the status in PepcDB or PDB records
row,Sequence,soluble on expression in E. coli
1,MRVLIVKTSSMGDVLHTLPALTDAQQAIPGIKFDWVVEEGFAQIPSWHAAVERVIPVAIRRWRKAWFSAPIKAERKAFREALQAKNYDAVIDAQGLVKSAALVTRLAHGVKHGMDWQTAREPLASLFYNRKHHIAKQQHAVERTRELFAKSLGYSKPQTQGDYAIAQHFLTNLPTDAGEYAVFLHATTRDDKHWPEEHWRELIGLLADSGIRIKLPWGAPHEEERAKRLAEGFAYVEVLPKMSLEGVARVLAGAKFVVSVDTGLSHLTAALDRPNITVYGPTDPGLIGGYGKNQMVCRAPGNELSQLTANAVKQFIEENAEKAAMI,soluble
2,MRVRNIQGEDYVKIYSVLNDWWGGRDMAVMLPKLFFIHFQETSFIIEEEGETLGFLCGFFSQTHKEEAYVHFIGVNPKYRRRGIASTLYSYFFDVARANNRKVVKAITSPVNKKSIQFHREIGFQIEAGDDEIEGVSVHTNYDGNGGSRVLFLKNV,not soluble
3,MRVSCVYATASRWGGPPVASEVRGDAAISTTPDAAPGLAARRRRILFVAEAVTLAHVVRPFALAQSLDPSRYEVHFACDPRYNQLLGPLPFRHHAIHTIPSERFFGNLTQGRFYAMRTLRKYVEADLRVLDEIAPDLVVGDLRISLSVSARLAGIPYIAIANAYWSPYAQRRFPLPDVIWTRLFGVRLVKLLYRLERPLLFALQCMPLNWVRRRHGLSSLGWNLCRIFTDGDHTLYADVPELMPTYDLPANHEYLGPVLWSPAGKPPTWWDSLPTDRPIVYATLGTSGGRNLLQLVLNALAELPVTVIAATAGRSDLKTVPANAFVADYLPGEAAAARSAVVVCNGGSLTTQQALVAGVPVIGVAGNLDQHLNMEAVERAGAGVLLRTERLKSQRVAGAVMQVISRSEYRQAAARLADAFGRDRVGFPQHVENALRLMPENRPRTWLAS,not soluble
4,MRVSDQVVQKLQGLIEQRHLKQGDRLPAERQLATSLGISRPSLREAIQQLNSLGILASRRGDGTYIQQLPETWSQQLIVEPISNLIEEDPEYRFDVQEARIVLEGGTAWYAALRSTEADRAKIHQCFDEIAYHQLQGDSAAAAVADANFHLAIAEASHNLVLIQMMRSLFDLLQYNVVLGRKKVYNHPVSADQLSEQHFQVMDAIDRQDAQAARDAVCGHIEFVIDHVRSLDEDEARQKRATRLHRIDQT,not soluble
5,MRVSLYVVVGGFALLTGCQTLDNHQVTKPEAQTVTTENTVPQYYLATEPESAQVTDVWERIRQGMQLPVPDKKLVNYYRDWYINNPKHLEVISERAAPYMYLIVEELEKRHLPIEIALLPIIESAFDPSASSASAASGLWQFTTPMASHFGLEMNWWYDGRRDVPASTTAALDMLEYLYNKTNNNWLYAIAAYNTGESKVLNAIKRNEDKGLKTDFWSLDLPKETKRYVPQLLALAEVIKHADEYGITLAPINNSPSIEVVDIDSQIDLAMAAGLANMTTTELAKLNPGYNRWATSPLGPHTLVLPIDKSEEFKKALAETESEARVSWLRYTIKSGDSIGSIAQKHHTTVNAIRAANGMKSNNIVAGRHLIIPVSADDKQLYALSTSQKLPKKAAGATSGNKLTYQVKSGDSLWQIAQAHNVSVKQLTAWNHLSKDSKLQTGQKLTIVAPQEKLDSEHIRTVSYKVKSGDSLAQIASKFKVTVAELLEWNSLTPSQYILPGQVLKLVVDESNLNALEHHHHHH,not soluble
6,MRVVIQRVKGAILSVRKENIGENEKELEIISEIKNGLICFLGIHKNDTWEDALYIIRKCLNLRLWNNDNKTWDKNVKDLNYELLIVSQFTLFGNTKKGNKPDFHLAKEPNEALIFYNKIIDEFKKQYNDDKIKIGKFGNYMNIDVTNDGPVTIYIDTHDINLNK,soluble
7,MRWAIVRFPGANCDEDARFALEKAGIRAEFVWHTERDLRGFDGVFLPGGFSYGDYLRAGALAAKSPVMEAVRRFAEEGRYVVGVCNGFQILTEAGLLPGALLANLNLHFTCKEVGVRVERNDLPFTRLYPRGQVLRLPIAHGEGRYYADPETLARLEGEGLVVFRYAPLKDEADYNPNGSLHDIAGIVSEKGNVLGMMPHPERAVDEVLGNTDGLPFFLGLVKEVAR,soluble
8,MRWAPVTYTVGSSSVGSFPAVQWRGINTPTQIVFSLSSSEVRSYRLRIFVPLAQVSARPQIAVNARWNGPVPAAPNQPKTRGITRGTTRGNNTLCEVDIPATALQAGSNRIAISLASGSPDNGFLSPAIVYDSVQLVAPLEHHHHHH,not soluble
9,MRWVRFFHEVGLEDVPLVGGKNASLGEMIRELSPLGVRVPEGFATTSEAYWHFLEHNGLKEAIARELGELDPEDPKALQRVSRRLRNLILKGEYPQDLREEILEAYRRLSEEAVEEEIPVAVRSSATAEDLLTASFAGQQESFLYVQGEADLLLHVKRAMASLFTARAISYRAHMGFDHLKVALSVGVQRMVRADDAASGVIFTLDPDTGHRGFVYLTAIYGLGENIVQGRVIPDGYYVHKETFREGFRAVVYRRLGAKELTLAFDPREGRLKNRPTPLYLRNRFALRDEEVLLLADWAMKIEDHYSKKRGSPTPMDIEWAKDGPTGELFVLQARPETVHSQKTPVLRVFRLLKRGEVLAEGLAVGEAIAMGRARVLKDPKEMDRFQEGEVLVTETTNPDWEPIMKKAAAIVTERGGRTSHAAIVARELGVPAVVGAVGATRSVPEGEEVTVSCAEGERGVVYRGRLPFEVEEIRPETLPRTRTRILVNVGTPEEALRTSLLPTDGVGLLRMEFVFASHVRVHPLALTRFETLPKEVRRQVEEVTEAYPDKRAYFVETLSQGIGLIAAAFYPRPVLLRFSDFKTNEYARLLGGHLFEPKEENPMLGWRGASRYYHPDYKEGFLLEVAAVRRVREEMGLKNLMVMVPFCRTPEEGEKVLEVMAEGGLRREEGGLEVHVMAEIPSNVLEAEAFAELFDGFSIGSNDLTQLALGLDRDSERVAHLFDERRETVKRLAAMLIEKAHAKGKKVGICGQAPSDYPEFAAFLVERGIDSLSLNPDALLRTVREVAEVERRLGIG,soluble
10,MRYMMTYDWMETVRNTNQWMGATANSMASYPLFSMVPNPVFNWMSAWGEVTERTFQRMVVKPDWGIRTFTCEDGKDHLVEINTVVERDFGDLIHINVTGRETQPRKVLLVAPMSGHYATLLRSTVKSLLVNCEVYVTDWHNARDIPVSAGKFDVEDYTLYLVDFMRELGPDTHVIAVCQPAPLTLAATAYLAELDPKAQPSTLTLIGGPVDPDATPTEVTDFGRRVTMGQLEQSMIQRVGFKYKGVGRMVYPGLLQLASFMSMNADRHSKAFTDQIQRVMRDEASDHDAHNRFYDEYLAVMDMTAEFYLSTVERVFKKREIARNAFIVDGHKVDISKITDVAVMTVEGANDDISAPGQCIAALDLCTGLADSKKANHLEPGAGHYGIFAGRSWRDNIRPLVIDFMNTNSRKGKSLRPANKNSAA,not soluble
11,MSAEFERLLAQFERFQSKIKKVDDQLANVERMQSEIAELEATASNADRSITIVAGPGGAIKDIQLTDKALSQQPQALSAALMSTIQEAVAEAARKQAAIVDDHMGGQLNVTDQVLETQAQLFGTSPQELRERMEQERPIRQTPLRPEEEYHEDYSHQDFLGSDQEQQSPPPPPAPSGGSAGDEFLQNLFNNDDHR,not soluble
12,MSAEFNQLVAQFEQFQAKLHRVDQQFADLGQMQRELTELEVVATSADREVTVVAGPSGTIKDIRLTDQAMHRPPQALATALMATLRQAVAESARRQAGIVENALGDEMGLTEQVLETQAQLFGVTPQELRAMTEQAPGQPPAAPPPAPPAAGPGPQTPLAPPARPTPPRRPAPAEEADDFSQRGFLRDDDQQPRRPQADPGQKRDDRFLNLYDDEGR,not soluble
13,MSAESGVAALLRLMAWLSPAFPVGGFSYSGGLEKAVEDGRVCDAAGLGGWVETLLRHGSLWNDAVFLAHAWRSSQDTTALSETANLGRALAGSAERYRETVLLGDAFIAAASAWPHAVLELLPKEAPYPVAIGAVAAGHGVPLRETLAAFLHAGVSQIVSAGIRLGVAGQKDGVAILAASEAVIEEIAARAALSTLDDLGSATVIADTAAMRHETQGTRLFRSLEHHHHHH,not soluble
14,MSAKQVSKDEEKEALNLFLSTQTIIKEALRKLGYPGDMYELMKEPQRMLTVRIPVKMDNGSVKVFTGYRSQHNDAVGPTKGGVRFHPEVNEEKVKALSIWMTLKCGIANLPYGGGKGGIICDPRTMSFGELERLSRGYVRAISQIVGPTKDIPAPDVYTNSQIMAWMMDEYSRLREFDSPGFITGKPLVLGGSQGRETATAQGVTICIEEAVKKKGIKLQNARIIIQGFGNAGSFLAKFMHDAGAKVIGISDANGGLYNPDGLDIPYLLDKRDSFGMVTNLFTDVITNEELLEKDCDILVPAAISNQITAKNAHNIQASIVVERANGPTTIDATKILNERGVLLVPDILASAGGVTVSYFEWVQNNQGYYWSEEEVAEKLRSVMVSSFETIYQTAATHKVDMRLAAYMTGIRKSAEASRFRGWV,soluble
15,MSAMENESNKDTNTETKSVPEEMEASKYVGQGFQPPAEKDAIEFAKKHRKEFEKVGEQFFKDNFGLKVKATNVVGKDDGVEVYVHCEDHGIVFNASLPLYKDAIHQKGSMRSNDNGDDMSMMVGTVLSGFEYRAQKEKYDNLYKFFKENEKKYQYTGFTKEAINKTQNVGYQNEYFYITYLSRNLKEYRKYYEPLIHKNDKEFKEGMQQARKELDYTANTDAVSTLFSTKKNFTKDNTVDDVIELSNKLKEKPNMPQKSQVTIQLGKSSINTKKPFYDDINPIEGLEHHHHHH,soluble
16,MSAPLRVLVTGAAGQIGYSIVIRIADGTVFGKEQPVELVLLDVPQCSNILEGVVFELQDCALPTLFSVVAVTDEKSAFTGIDYAFLVGAMPRREGMERKDLLAANVKIFKSQGKALAEYAKPTTKVIVVGNPANTNAFIAAKYAAGKIPAKNFSAMTRLDHNRALAQLALKTGTTIGNVKNVIIWGNHSGTQFPDVTHATVNKNGTETDAYAAVGDNAFLQGPFIATVQKRGGVIIEKRKLSSAMSAAKAACDHIHDWHFGTKAGQFVSMAVPSDGSYGIPQGLIFSFPVTIEGGEWKIVQGLSFDDFAKGKIAATTKELEEERDDALKACDDANI,not soluble
17,MSAQKPGLHPRNRHQHRYDLAALCQTTPELTSFLIRTPAGEQSVDFANPQAVKALNKALLAHFYAVTHWDIPPGFLCPPVPGRADYIHHLADLLGETTGSIPAQATILDVGVGANCIYPLIGVHEYGWRFTGSEVSDAAMSSAQAIIQANTGLSRAIRLRRQKDPAAIFTGIIHKNEFYDATLCNPPFHDSAAAARAGSERKRRNLGQNKDDALNFGGQQQELWCEGGEVAFIKKMIAESQSFRRQVLWFTTLVSRGENLPPLYRALTEAGAVKVVKKEMAQGQKQSRFIAWTFMDDDQRRRFITRKR,not soluble
18,MSASFSAPRLRPRQLSAGDLVEESLLDPANDYLRIVRARQPGMDLRQWIAAAGAGLRDSLLRHGGILFRGFAVDGAEGFSQAVQSFSPNMLDYLERAAARQEVAHRVFTSTEFSPDGWIPPHHEMSYSHNWPSYIHFYCQTPPATQGRTPLADERRVSARIPEAIRQRFLRHGVCYVRNYGPEIDLTWQEGFQTDSRAEVEAYCRQTGTQWTWLDDQRLNTRQVRQAMVRHPLSGETLWFNHAHMFHVSNMPPALARALLDEVGEQGLPRNAYYGDGSPIEAEVLDTIRAAYREETRAFAWERGDVLMLDNFISVHGREPYTGERKVLVAMTDLHVHQP,not soluble
19,MSASVKESLQLQLLEMEMLFSMFPNQGEVKLEDVNALTNIKRYLEGTREALPPKIEFVITLQIEEPKVKIDLQVTMPHSYPYVALQLFGRSSELDRHQQLLLNKGLTSYIGTFDPGELCVCAAIQWLQDNSASYFLNRKLVYEPSTQAKPVKNTFLRMWIYSHHIYQQDLRKKILDVGKRLDVTGFCMTGKPGIICVEGFKEHCEEFWHTIRYPNWKHISCKHAESVETEGNGEDLRLFHSFEELLLEAHGDYGLRNDYHMNLGQFLEFLKKHKSEHVFQILFGIESKSSDSLEHHHHHH,soluble
20,MSCHTSCIDHTSALIHCADEVFEKPLPHLFEAAVFLMGFTLWGKLEFNQRDGFLDCPHGDRVCGSGMMSKVDILQLTGHFFTNFNGRDYIENIQNLFDNQLASYHIRNQFLIGIQRLGHRKLLIAF,not soluble
